Legend:
Conditions in all cases: protein: recombinant; tags: N-terminal His6 (removed by protease where required); label: 5' AF647 (FP) or Cy3 (EMSA) on bottom strand; blunt
hOGG1 wild type [1] = target: T1, hOGG1 wild type (human, UniProt O15527 1-345); test: fluorescence polarisation; oxidising, pre-oxidised hOGG1; FP at 25°C with 5 nM labelled DNA; EMSA room temp 30 min, 15% native PAGE 0.5x TBE 4°C; interaction buffer 20 mM Tris-HCl pH 7.6, 200 mM NaCl (Fig. S12); reducing (5 mM DTT in EMSA) or oxidising (pre-oxidised hOGG1)
hOGG1 wild type [2] = target: T1, hOGG1 wild type; test: fluorescence polarisation; reducing; FP at 25°C with 5 nM labelled DNA; EMSA room temp 30 min, 15% native PAGE 0.5x TBE 4°C; interaction buffer 20 mM Tris-HCl pH 7.6, 200 mM NaCl (Fig. S12); reducing (5 mM DTT in EMSA) or oxidising (pre-oxidised hOGG1)
hOGG1 wild type [3] = target: T1, hOGG1 wild type; test: fluorescence polarisation; oxidising; FP at 25°C with 5 nM labelled DNA; EMSA room temp 30 min, 15% native PAGE 0.5x TBE 4°C; interaction buffer 20 mM Tris-HCl pH 7.6, 200 mM NaCl (Fig. S12); reducing (5 mM DTT in EMSA) or oxidising (pre-oxidised hOGG1)

T1 sequence (O15527 whole entry): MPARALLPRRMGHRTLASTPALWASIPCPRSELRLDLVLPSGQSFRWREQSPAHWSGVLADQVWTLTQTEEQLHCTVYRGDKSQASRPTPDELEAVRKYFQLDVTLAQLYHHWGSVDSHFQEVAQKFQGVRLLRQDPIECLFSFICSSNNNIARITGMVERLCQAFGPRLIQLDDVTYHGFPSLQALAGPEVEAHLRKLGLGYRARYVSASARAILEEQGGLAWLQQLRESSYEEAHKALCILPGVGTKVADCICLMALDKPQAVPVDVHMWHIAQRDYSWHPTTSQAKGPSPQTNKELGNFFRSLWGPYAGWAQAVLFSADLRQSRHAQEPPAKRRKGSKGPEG

B1: oxoG 48 bp (EMSA/FP) (dsDNA)
DNA 1: GCATGCCTCGAGTCTAGAGGTACCAGATCTGATCCTCTAGAGTCGACC
DNA 2: GGTCGACTCTAGAGGATCAGATCTGGTACCTCTAGACTCGAGGCATGC
modifications: 8-oxoguanine at position 10 of strand 1 (written G)
Kd (hOGG1 wild type [1]): 140 ± 9 nM
Kd (hOGG1 wild type [2]): 66 ± 5 nM

B2: undamaged (nsp) 48 bp (dsDNA)
DNA 1: B1 DNA 1
DNA 2: B1 DNA 2
Kd (hOGG1 wild type [3]): 250 ± 18 nM
Kd (hOGG1 wild type [2]): 252 ± 43 nM

From article PMC9561264, “Direct hOGG1-Myc interactions inhibit hOGG1 catalytic activity and recruit Myc to its promoters under oxidative stress”
